Experimental data: US20210253698A1 (AFFIMED, published 2021)

Key:
[1] = target: human CD16A-158V and cynomolgus CD16 (value not tied to one of the two); assay: SPR, 50 nM analyte, receptor captured, 3 h dissociation
[2] = target: Human CD16A-158V ECD-monomeric Fc fusion antigen (human) (UniProt P08637); assay: ELISA, CD16 antigen coated at 0.5 µg/mL (10 nM), without competition
[3] = target: human CD16A (FcγRIIIA) on primary human NK cells (human) (UniProt P08637); assay: flow cytometry on primary human NK cells, 37 C, buffer
Chain of human CD16A (FcγRIIIA) on primary human NK cells (human) (P08637 17-254): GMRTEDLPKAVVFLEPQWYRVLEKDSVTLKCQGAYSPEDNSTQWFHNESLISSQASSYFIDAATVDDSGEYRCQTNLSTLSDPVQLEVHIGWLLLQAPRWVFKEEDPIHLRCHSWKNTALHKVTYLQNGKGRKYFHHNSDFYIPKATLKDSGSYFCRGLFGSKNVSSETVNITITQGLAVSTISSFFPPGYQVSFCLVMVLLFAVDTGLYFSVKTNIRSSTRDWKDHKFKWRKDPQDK

[4] = target: Human CD16A-158V ECD-monomeric Fc fusion antigen (human) (UniProt P08637); assay: ELISA, CD16 antigen coated at 0.5 µg/mL (10 nM), competitor 8-10 nM 3G8 IgG
[5] = target: Cynomolgus CD16A ECD-monomeric Fc fusion antigen (cynomolgus) (UniProt Q8SPW2); assay: ELISA, antigen coated at 1.5 µg/mL (32 nM), scFv titrated
Chain of Cynomolgus CD16A ECD-monomeric Fc fusion antigen (cynomolgus) (Q8SPW2 17-208): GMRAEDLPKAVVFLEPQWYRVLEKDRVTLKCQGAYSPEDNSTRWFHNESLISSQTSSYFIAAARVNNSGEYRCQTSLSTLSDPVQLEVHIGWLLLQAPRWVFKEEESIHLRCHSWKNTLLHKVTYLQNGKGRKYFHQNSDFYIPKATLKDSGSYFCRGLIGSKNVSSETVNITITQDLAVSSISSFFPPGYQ

[6] = target: Human CD16A-158F ECD-monomeric Fc fusion antigen (human) (UniProt P08637); assay: as above
Chain of Human CD16A-158F ECD-monomeric Fc fusion antigen (human) (P08637 17-208): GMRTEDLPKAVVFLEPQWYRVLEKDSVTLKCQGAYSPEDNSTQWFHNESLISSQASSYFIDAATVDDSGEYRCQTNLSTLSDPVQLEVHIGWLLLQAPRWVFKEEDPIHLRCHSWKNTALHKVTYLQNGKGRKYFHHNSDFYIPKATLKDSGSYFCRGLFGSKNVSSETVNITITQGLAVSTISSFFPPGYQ

[7] = target: Human CD16A-158V ECD-monomeric Fc fusion antigen (human) (UniProt P08637); assay: as above
[8] = target: human CD16A (FcγRIIIA) on primary human NK cells (human) (UniProt P08637); assay: flow cytometry on primary human NK cells, 37 C, with 10 mg/mL polyclonal human IgG
[9] = target: Human CD16A-158V ECD-monomeric Fc fusion antigen (human) (UniProt P08637); assay: SPR (Biacore T200), receptor-mono-Fc captured, 1:1 model
[10] = target: T1, B-cell maturation antigen (BCMA) (human, UniProt Q02223 1-54, limits assumed); assay: flow cytometry on Raji cells (low BCMA), APC-A histogram, % of Max
T1 construct: also called CD269; TNFRSF17
T1 sequence (looked up): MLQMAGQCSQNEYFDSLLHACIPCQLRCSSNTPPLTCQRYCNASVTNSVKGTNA

[11] = target: T1, B-cell maturation antigen (BCMA); assay: not stated; binding to BCMA
[12] = target: T2, human CD16A (FcγRIIIA) on primary human NK cells (human, UniProt P08637 17-254); assay: flow cytometry on freshly prepared human NK cells, DyLight650-labelled antibody, in the presence of 10 mg/mL SCIG (Hizentra), delta gMFI
T2 construct: whole, on cells
T2 sequence (P08637 17-254): as the sequence (P08637 17-254) above
Protocol: Fresh prepared human NK cells were pre-incubated for 1-hours at 37 C with and without 10 mg/mL of SCIG (Hizentra), then stained with DyLight650 labeled anti-AFM26/CD16a at indicted concentrations. […] In FIGS. 40C and 40D, human NK cells were isolated from a healthy human blood donor. NK (FIG. 40D) and MM.1S cells (FIG. 40C) were preincubated separately in 50% human autologous serum for 2 hours prior to assay setup. NK cells were co-cultured with MM.15 tumor cell line at an approximate E:T ration of 5, and exposed to 10-fold serial diluted test articles from 0.1-100nM for approximately 20 hours at 37 C with 5% CO₂. Antibody staining with CD138 and CD56 followed by FACS were used to monitor cytotoxicity of MM.15 target cells and NK survival. Data were analyzed with the software programs FlowJo and GraphPad Prism 6.

CD16A = target: T3, CD16A (human, UniProt P08637 17-208); assay: not stated; binding to CD16A
T3 construct: also called CD16A antigen; FcγRIIIA
T3 sequence (P08637 17-208 limits assumed): as the sequence (P08637 17-208) above

[13] = target: human CD16A (SEQ ID NO:48) (human, UniProt P08637 17-208); assay: SPR (Biacore T200), purified scFv, monovalent binding affinity; human CD16A
Chain of human CD16A (SEQ ID NO:48) (P08637 17-208 limits assumed): as the sequence (P08637 17-208) above

[14] = target: cynomolgus CD16A (SEQ ID NO:49) (cynomolgus, UniProt Q8SPW2 17-208); assay: SPR (Biacore T200), purified scFv, monovalent binding affinity; cynomolgus CD16A
Chain of cynomolgus CD16A (SEQ ID NO:49) (Q8SPW2 17-208 limits assumed): as the sequence (Q8SPW2 17-208) above

[15] = target: T4, biotinylated, recombinant human CD16A(48R-158V) fused to human IgG1 Fc portion (human, UniProt P08637 17-208, limits assumed, biotinylated); assay: ELISA, antibody coated, soluble biotinylated CD16A-Fc titrated
T4 construct: also called soluble CD16A antigen; recombinant human CD16A soluble antigen; not shown: human IgG1 Fc portion
T4 sequence (P08637 17-208 L66R/F176V limits assumed): as the sequence (P08637 17-208) above, with L50R, F160V counted along it

[16] = target: T5, Human CD16A-158V ECD-monomeric Fc fusion antigen (human, UniProt P08637 17-208); assay: SPR multi-cycle kinetics (Biacore T200), 4-fold dilution series over captured human CD16A-158V
T5 construct: extracellular domain; also called CD16A-158V ECD-Fc fusion antigen; biotinylated mono-Fc(silent)-Avi-tagged receptor; not shown: monomeric Fc (Ying et al. 2012) fusion partner, Avi tag in SPR
T5 sequence (P08637 17-208 F176V): as the sequence (P08637 17-208) above, with F160V counted along it
Protocol: (§1) IgGs and scFvs were prepared in HBS-P+buffer at indicated concentration series and are injected to reference surfaces (Fc 1, Fc 3) and receptor captured surface (Fc 2, Fc 4) at a flow rate of 40 μL/min (association time 180 s, dissociation time 300 s). […] Data were referenced by subtraction of signals from reference surfaces (Fc 2-1, Fc 4-3) and zero concentration (buffer control) signals. Kinetic evaluation was performed by fitting data to a 1:1 binding model (Rmax and RI locally fitted) using Biacore T200 Evaluation Software (v3.1).

[17] = target: T6, Human CD16A-158F ECD-monomeric Fc fusion antigen (human, UniProt P08637 17-208, biotinylated in SPR); assay: SPR (Biacore T200), receptor-mono-Fc captured, 1:1 model
T6 construct: extracellular domain; not shown: monomeric Fc (Ying et al. 2012) fusion partner, Avi tag in SPR
T6 sequence (P08637 17-208): as the sequence (P08637 17-208) above
Protocol: as §1, with “(v3.1). […] Referenced curves were normalized to each curves maximum and overlaid. For investigation of receptor retention via qualitative dissociation phase comparison of monovalent and bivalent CD16A-binding antibodies or ligands, biotinylated mono-Fc(silent)-Avi-tagged receptors were prepared in HBS-P+and captured (human CD16A-158V approx. 160RU, cynomolgus CD16 approx. 320 RU) in flow cells Fc 2 and […].” for “(v3.1).”

Chain of Human CD16A-158V ECD-monomeric Fc fusion antigen (human) (P08637 17-208 F176V): as the sequence (P08637 17-208) above, with F160V counted along it

For “IgG1 Fc (enhanced, S239D/I332E) (from UniProt P01857 1-330) (antibody)”, the percent remaining on the receptor after 3 h of dissociation [1] was 10%.

With scFv 3G8 the EC50 [2] was 0.9 nM, the Kd [3] was 3.8 nM and the EC50 [4] was 19.7 nM. The EC50 [5] was 0.87 nM, the EC50 [6] was 0.58 nM and the EC50 [7] was 0.33 nM. It also gave a Kd [8] of 64.6 nM and a Kd [9] of 8.6 nM.

B1: CD16A/BCMA antibody III (bispecific antibody)
chain 1: DKTHTCPPCPAPEFEGGPSVFLFPPKPKDTLMISRTPEVTCVVVAVSHEDPEVKFNWYVDGVEVHNAKTKPREEQYNSTYRVVSVLTVLHQDWLNGKEYKCKVSNKALPAPIEKTISKAKGQPREPQVYTLPPSREEMTKNQVSLTCLVKGFYPSDIAVEWESNGQPENNYKTTPPVLDSDGSFFLTSKLTVDKSRWQQGNVFSCSVMHEALHNHYTQKSLSLSPGGGGGSGGGGSSYVLTQPSSVSVAPGQTATISCGGHNIGSKNVHWYQQRPGQSPVLVIYQDNKRPSGIPERFSGSNSGNTATLTISGTQAMDEADYYCQVWDNYSVLFGGGTKLTVLGGSGGSQVQLVQSGAEVKKPGESLKVSCKASGYTFTSYYMHWVRQAPGQGLEWMGAIEPMYGSTSYAQKFQGRVTMTRDTSTSTVYMELSSLRSEDTAVYYCARGSAYYYDFADYWGQGTLVTVSSGGSGGSGGSGGSGGSGGSSYVLTQPSSVSVAPGQTATISCGGHNIGSKNVHWYQQRPGQSPVLVIYQDNKRPSGIPERFSGSNSGNTATLTISGTQAMDEADYYCQVWDNYSVLFGGGTKLTVLGGSGGSQVQLVQSGAEVKKPGESLKVSCKASGYTFTSYYMHWVRQAPGQGLEWMGAIEPMYGSTSYAQKFQGRVTMTRDTSTSTVYMELSSLRSEDTAVYYCARGSAYYYDFADYWGQGTLVTVSSAAAGSHHHHHH
chain 2: EVQLLESGGGLVQPGGSLRLSCAASGFTFSNYDMAWVRQAPGKGLEWVSSISTRGDITSYRDSVKGRFTISRDNSKNTLYLQMNSLRAEDTAVYYCARQDYYTDYMGFAYWGQGTLVTVSSGGGGSGGGGSGGGGSAIQMTQSPSSLSASVGDRVTITCRASEDIYNGLAWYQQKPGKAPKLLIYGASSLQDGVPSRFSGSGSGTEFTLTISSLQPEDEATYYCAGPHKYPLTFGGGTKVEIKDKTHTCPPCPAPEFEGGPSVFLFPPKPKDTLMISRTPEVTCVVVAVSHEDPEVKFNWYVDGVEVHNAKTKPREEQYNSTYRVVSVLTVLHQDWLNGKEYKCKVSNKALPAPIEKTISKAKGQPREPQVYTLPPSREEMTKNQVSLYCLVKGFYPSDIAVEWESNGQPENNYKTTPPVLDSDGSFFLYSKLTVDKSRWQQGNVFSCSVMHEALHNHYTQKSLSLSPG
notes: also called KiH-scDb-Fc BCMA/CD16a
B1: binds [10].

B2: CD16A/BCMA antibody I (bispecific antibody, human IgG1, kappa)
heavy: EVQLLESGGGLVQPGGSLRLSCAASGFTFSNYDMAWVRQAPGKGLEWVSSISTRGDITSYRDSVKGRFTISRDNSKNTLYLQMNSLRAEDTAVYYCARQDYYTDYMGFAYWGQGTLVTVSSASTKGPSVFPLAPSSKSTSGGTAALGCLVKDYFPEPVTVSWNSGALTSGVHTFPAVLQSSGLYSLSSVVTVPSSSLGTQTYICNVNHKPSNTKVDKKVEPKSCDKTHTCPPCPAPEFEGGPSVFLFPPKPKDTLMISRTPEVTCVVVAVSHEDPEVKFNWYVDGVEVHNAKTKPREEQYNSTYRVVSVLTVLHQDWLNGKEYKCKVSNKALPAPIEKTISKAKGQPREPQVYTLPPSREEMTKNQVSLTCLVKGFYPSDIAVEWESNGQPENNYKTTPPVLDSDGSFFLYSKLTVDKSRWQQGNVFSCSVMHEALHNHYTQKSLSLSPGGGGGSGGGGSGGGGSGGGGSGGGGSGGGGSSYVLTQPSSVSVAPGQTATISCGGHNIGSKNVHWYQQRPGQSPVLVIYQDNKRPSGIPERFSGSNSGNTATLTISGTQAMDEADYYCQVWDNYSVLFGGGTKLTVLGGSGGSGGSGGSGGSGGSGGSQVQLVQSGAEVKKPGESLKVSCKASGYTFTSYYMHWVRQAPGQGLEWMGAIEPMYGSTSYAQKFQGRVTMTRDTSTSTVYMELSSLRSEDTAVYYCARGSAYYYDFADYWGQGTLVTVSS
light: AIQMTQSPSSLSASVGDRVTITCRASEDIYNGLAWYQQKPGKAPKLLIYGASSLQDGVPSRFSGSGSGTEFTLTISSLQPEDEATYYCAGPHKYPLTFGGGTKVEIKRTVAAPSVFIFPPSDEQLKSGTASVVCLLNNFYPREAKVQWKVDNALQSGNSQESVTEQDSKDSTYSLSSTLTLSKADYEKHKVYACEVTHQGLSSPVTKSFNRGEC
notes: also called scFv-IgAb I BCMA/CD16a; BCMA/CD16A antibody I
For B2, the Kd [11] was ~2 nM, the “EC50 (read off the curve)” value [12] was ~40 nM and the Kd (CD16A) was ~16 nM.

B3: anti-CD16A Fv of SEQ ID NOs:1 and 2 (scFv)
chain 1: QVQLVQSGAEVKKPGESLKVSCKASGYTFTSYYMHWVRQAPGQGLEWMGIINPSGGSTSYAQKFQGRVTMTRDTSTSTVYMELSSLRSEDTAVYYCARGSAYYYDFADYWGQGTLVTVSS
chain 2: SYVLTQPSSVSVAPGQTATISCGGHNIGSKNVHWYQQRPGQSPVLVIYQDNKRPSGIPERFSGSNSGNTATLTISGTQAMDEADYYCQVWDNYSVLFGGGTKLTVL
notes: Measured as purified scFv
With B3 the Kd [13] was 40.5 nM and the Kd [14] was 132 nM.

B4: scDb-Tribody_01 (other)
VH: B3 chain 1
VL: B3 chain 2
notes: Trispecific; LSIV21 scDb VL-VL-VH-VH; HSA(N1) Fab, EGFR; no hinge; no Fc; Chains: anti-CD16A Fv only
B4 gave an EC50 [15] of 0.65 nM.

B5: IgG1 Fc (silenced, L234F/L235E/D265A) (antibody)
heavy: ASTKGPSVFPLAPSSKSTSGGTAALGCLVKDYFPEPVTVSWNSGALTSGVHTFPAVLQSSGLYSLSSVVTVPSSSLGTQTYICNVNHKPSNTKVDKKVEPKSCDKTHTCPPCPAPEFEGGPSVFLFPPKPKDTLMISRTPEVTCVVVAVSHEDPEVKFNWYVDGVEVHNAKTKPREEQYNSTYRVVSVLTVLHQDWLNGKEYKCKVSNKALPAPIEKTISKAKGQPREPQVYTLPPSRDELTKNQVSLTCLVKGFYPSDIAVEWESNGQPENNYKTTPPVLDSDGSFFLYSKLTVDKSRWQQGNVFSCSVMHEALHNHYTQKSLSLSPGK
notes: also called human IgG1 Fc-silenced
With B5 the binding result [16] was “no binding”, the Kd [17] was 34700 nM and the koff [17] was 0.71 s⁻¹. For the same molecule, the kon [17] was 20400 M⁻¹ s⁻¹.

B6: CD16A/BCMA antibody II (bispecific antibody)
TandAb polypeptide VH BCMA-VL CD16A-VH CD16A-VL BCMA: EVQLLESGGGLVQPGGSLRLSCAASGFTFSNYDMAWVRQAPGKGLEWVSSISTRGDITSYRDSVKGRFTISRDNSKNTLYLQMNSLRAEDTAVYYCARQDYYTDYMGFAYWGQGTLVTVSSGGSGGSGGSGGSSYVLTQPSSVSVAPGQTATISCGGHNIGSKNVHWYQQRPGQSPVLVIYQDNKRPSGIPERFSGSNSGNTATLTISGTQAMDEADYYCQVWDNYSVLFGGGTKLTVLGGSQVQLVQSGAEVKKPGESLKVSCKASGYTFTSYYMHWVRQAPGQGLEWMGAIEPMYGSTSYAQKFQGRVTMTRDTSTSTVYMELSSLRSEDTAVYYCARGSAYYYDFADYWGQGTLVTVSSGGSGGSGGSGGSAIQMTQSPSSLSASVGDRVTITCRASEDIYNGLAWYQQKPGKAPKLLIYGASSLQDGVPSRFSGSGSGTEFTLTISSLQPEDEATYYCAGPHKYPLTFGGGTKVEIK
notes: also called Fc-less TandAb BCMA/CD16A
B6: binds [10].
